Measurements: patent US20220289850 (published 2022)

Assays:
C1q = C1q (human, UniProt P02745); test: other, up to 30 ug/mL
human integrin avb6 = biological target: T1, human integrin avb6 (human, UniProt P06756); test: SPR
T1 chain 1: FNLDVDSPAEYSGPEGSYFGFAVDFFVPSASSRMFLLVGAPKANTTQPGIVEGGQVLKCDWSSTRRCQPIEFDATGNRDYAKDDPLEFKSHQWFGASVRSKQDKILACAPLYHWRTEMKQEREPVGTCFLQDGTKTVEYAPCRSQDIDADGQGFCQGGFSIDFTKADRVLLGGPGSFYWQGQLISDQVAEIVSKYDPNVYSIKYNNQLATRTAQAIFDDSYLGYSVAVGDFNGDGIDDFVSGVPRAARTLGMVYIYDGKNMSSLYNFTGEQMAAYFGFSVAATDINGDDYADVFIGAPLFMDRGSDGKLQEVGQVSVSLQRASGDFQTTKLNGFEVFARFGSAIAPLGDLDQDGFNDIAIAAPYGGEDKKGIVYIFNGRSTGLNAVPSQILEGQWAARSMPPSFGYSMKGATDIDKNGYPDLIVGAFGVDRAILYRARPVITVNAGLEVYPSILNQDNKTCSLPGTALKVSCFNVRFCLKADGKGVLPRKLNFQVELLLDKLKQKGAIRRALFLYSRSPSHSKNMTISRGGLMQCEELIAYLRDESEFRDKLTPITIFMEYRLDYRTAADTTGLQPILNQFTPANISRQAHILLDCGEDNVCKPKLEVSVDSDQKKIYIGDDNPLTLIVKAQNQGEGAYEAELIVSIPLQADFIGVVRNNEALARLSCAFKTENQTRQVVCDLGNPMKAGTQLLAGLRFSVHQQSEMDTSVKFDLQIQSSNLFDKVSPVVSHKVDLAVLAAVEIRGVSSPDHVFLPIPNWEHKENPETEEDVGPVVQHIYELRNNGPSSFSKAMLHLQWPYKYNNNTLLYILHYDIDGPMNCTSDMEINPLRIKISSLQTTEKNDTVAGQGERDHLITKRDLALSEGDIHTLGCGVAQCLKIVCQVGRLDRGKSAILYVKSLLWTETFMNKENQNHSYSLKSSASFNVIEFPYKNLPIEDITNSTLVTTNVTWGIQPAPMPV
T1 chain 2: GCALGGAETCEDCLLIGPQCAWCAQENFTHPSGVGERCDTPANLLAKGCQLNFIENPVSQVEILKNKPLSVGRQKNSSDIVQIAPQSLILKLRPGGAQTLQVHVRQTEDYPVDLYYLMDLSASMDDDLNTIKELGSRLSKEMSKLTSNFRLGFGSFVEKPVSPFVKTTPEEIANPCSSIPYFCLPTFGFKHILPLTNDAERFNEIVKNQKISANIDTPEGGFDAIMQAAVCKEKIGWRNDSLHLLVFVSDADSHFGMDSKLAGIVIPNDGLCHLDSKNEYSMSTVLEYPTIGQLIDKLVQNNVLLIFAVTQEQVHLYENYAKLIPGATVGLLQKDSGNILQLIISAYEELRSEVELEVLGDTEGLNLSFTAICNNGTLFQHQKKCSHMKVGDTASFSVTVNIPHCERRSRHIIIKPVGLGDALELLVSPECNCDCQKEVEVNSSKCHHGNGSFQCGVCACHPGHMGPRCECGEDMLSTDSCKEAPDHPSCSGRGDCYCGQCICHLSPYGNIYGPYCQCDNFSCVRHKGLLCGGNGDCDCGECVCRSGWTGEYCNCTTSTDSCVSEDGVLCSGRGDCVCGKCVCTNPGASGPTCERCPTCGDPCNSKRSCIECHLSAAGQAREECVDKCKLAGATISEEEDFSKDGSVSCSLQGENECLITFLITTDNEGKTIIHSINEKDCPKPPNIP

human integrin avb5 = biological target: T2, human integrin avb5 (human, UniProt P06756); test: FACS HEK cells
T2 chain 1: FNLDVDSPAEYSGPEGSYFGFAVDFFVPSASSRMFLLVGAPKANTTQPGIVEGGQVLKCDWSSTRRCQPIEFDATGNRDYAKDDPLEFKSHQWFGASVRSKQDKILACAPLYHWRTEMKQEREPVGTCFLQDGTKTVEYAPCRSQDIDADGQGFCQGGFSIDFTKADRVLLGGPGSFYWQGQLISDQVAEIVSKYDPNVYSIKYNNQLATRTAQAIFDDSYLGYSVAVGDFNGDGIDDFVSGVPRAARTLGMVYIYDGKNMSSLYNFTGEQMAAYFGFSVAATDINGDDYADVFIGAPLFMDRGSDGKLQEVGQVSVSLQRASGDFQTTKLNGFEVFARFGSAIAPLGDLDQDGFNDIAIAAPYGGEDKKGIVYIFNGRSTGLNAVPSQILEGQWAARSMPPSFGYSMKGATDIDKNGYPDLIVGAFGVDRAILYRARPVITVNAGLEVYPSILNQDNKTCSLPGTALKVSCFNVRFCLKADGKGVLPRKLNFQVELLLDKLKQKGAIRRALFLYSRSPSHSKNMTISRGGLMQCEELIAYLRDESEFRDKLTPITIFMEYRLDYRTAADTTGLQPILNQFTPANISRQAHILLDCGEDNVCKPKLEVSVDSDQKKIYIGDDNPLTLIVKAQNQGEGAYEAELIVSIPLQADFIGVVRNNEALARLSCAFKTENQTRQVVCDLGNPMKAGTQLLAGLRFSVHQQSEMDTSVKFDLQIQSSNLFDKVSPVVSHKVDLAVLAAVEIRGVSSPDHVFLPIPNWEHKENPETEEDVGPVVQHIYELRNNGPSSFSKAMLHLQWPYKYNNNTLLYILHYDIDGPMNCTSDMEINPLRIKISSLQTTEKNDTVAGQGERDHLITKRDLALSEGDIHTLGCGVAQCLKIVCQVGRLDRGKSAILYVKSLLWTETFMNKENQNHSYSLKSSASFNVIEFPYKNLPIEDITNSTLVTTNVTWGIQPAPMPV
T2 chain 2: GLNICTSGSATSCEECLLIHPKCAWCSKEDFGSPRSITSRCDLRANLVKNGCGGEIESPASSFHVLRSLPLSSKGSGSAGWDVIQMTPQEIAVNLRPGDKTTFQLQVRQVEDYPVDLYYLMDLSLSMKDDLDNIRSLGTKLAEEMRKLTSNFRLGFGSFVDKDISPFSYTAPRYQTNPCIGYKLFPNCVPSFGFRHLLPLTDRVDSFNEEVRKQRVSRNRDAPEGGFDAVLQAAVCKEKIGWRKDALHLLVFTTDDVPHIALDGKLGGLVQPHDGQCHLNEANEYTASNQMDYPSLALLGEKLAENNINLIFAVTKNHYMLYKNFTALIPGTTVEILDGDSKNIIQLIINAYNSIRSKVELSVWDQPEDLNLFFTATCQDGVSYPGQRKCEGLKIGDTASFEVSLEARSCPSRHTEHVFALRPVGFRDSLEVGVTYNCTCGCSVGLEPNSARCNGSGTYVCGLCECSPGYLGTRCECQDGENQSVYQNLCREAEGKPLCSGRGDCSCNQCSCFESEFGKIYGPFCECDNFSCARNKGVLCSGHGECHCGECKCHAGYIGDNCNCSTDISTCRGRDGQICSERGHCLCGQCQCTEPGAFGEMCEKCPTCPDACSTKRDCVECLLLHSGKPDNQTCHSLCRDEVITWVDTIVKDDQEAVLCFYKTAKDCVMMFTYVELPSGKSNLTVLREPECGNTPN

Measured: binding result

Sequence of C1q (P02745 23-245, chain 1 of 3): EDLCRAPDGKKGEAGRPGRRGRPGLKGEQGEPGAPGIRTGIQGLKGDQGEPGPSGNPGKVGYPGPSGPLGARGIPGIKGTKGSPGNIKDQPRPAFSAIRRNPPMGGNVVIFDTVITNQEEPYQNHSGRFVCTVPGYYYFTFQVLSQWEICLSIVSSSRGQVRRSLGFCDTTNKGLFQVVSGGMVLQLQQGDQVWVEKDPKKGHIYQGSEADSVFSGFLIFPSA
Sequence of C1q (P02746 28-253, chain 2 of 3, further chain): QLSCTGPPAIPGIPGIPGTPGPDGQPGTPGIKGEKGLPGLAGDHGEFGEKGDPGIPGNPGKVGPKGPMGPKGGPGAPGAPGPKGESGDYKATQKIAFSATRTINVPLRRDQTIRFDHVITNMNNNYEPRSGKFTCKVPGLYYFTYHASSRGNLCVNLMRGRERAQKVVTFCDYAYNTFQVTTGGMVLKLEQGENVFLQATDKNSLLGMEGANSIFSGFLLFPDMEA
Sequence of C1q (P02747 29-245, chain 3 of 3, further chain): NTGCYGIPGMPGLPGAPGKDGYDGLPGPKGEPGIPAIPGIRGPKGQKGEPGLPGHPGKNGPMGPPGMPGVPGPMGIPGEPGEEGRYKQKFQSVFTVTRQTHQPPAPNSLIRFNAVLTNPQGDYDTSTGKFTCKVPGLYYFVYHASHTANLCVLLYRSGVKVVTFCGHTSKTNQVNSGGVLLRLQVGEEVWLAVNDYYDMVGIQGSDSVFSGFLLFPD

B1: ADWA11 2.4 IgG (antibody)
chain 1: EVQLVESGGGLVQPGGSLRLSCAASGFNIKDYYMNWVRQAPGKGLEWVGWIDPDQGNTIYEPKFQGRFTISADTSKNSAYLQMNSLRAEDTAVYYCARRLLMDYWGQGTLVTVSSASTKGPSVFPLAPSSKSTSGGTAALGCLVKDYFPEPVTVSWNSGALTSGVHTFPAVLQSSGLYSLSSVVTVPSSSLGTQTYICNVNHKPSNTKVDKKVEPKSCDKTHTCPPCPAPEAAGAPSVFLFPPKPKDTLMISRTPEVTCVVVDVSHEDPEVKFNWYVDGVEVHNAKTKPREEQYNSTYRVVSVLTVLHQDWLNGKEYKCKVSNKALPAPIEKTISKAKGQPREPQVYTLPPSREEMTKNQVSLTCLVKGFYPSDIAVEWESNGQPENNYKTTPPVLDSDGSFFLYSKLTVDKSRWQQGNVFSCSVMHEALHNHYTQKSLSLSPGK
chain 2: DIQMTQSPSSLSASVGDRVTITCRSTKSLSHFNGNTYLFWYQQKPGKAPKRLIYYMSSLASGVPSRFSGSGSGTDFTLTISSLQPEDFATYYCQQSLEYPFTFGGGTKVEIKRTVAAPSVFIFPPSDEQLKSGTASVVCLLNNFYPREAKVQWKVDNALQSGNSQESVTEQDSKDSTYSLSSTLTLSKADYEKHKVYACEVTHQGLSSPVTKSFNRGEC
no binding: all assays above
